{
  "source": "paper PMC5688200",
  "about": "“Overexpression of the transcription factor NF-YC9 confers abscisic acid hypersensitivity in Arabidopsis”",
  "binders": {"B1": {"name": "EM6 promoter probe (-277 to -220, contains pEm6.2) (dsDNA)", "DNA 1": "ACCACGTTCAAAGTATACGTCAGCTAATAAAGTCAGACACGTGGCATGTCACCAAGAA", "DNA 2": "TTCTTGGTGACATGCCACGTGTCTGACTTTATTAGCTGACGTATACTTTGAACGTGGT"}},
  "key": {"NF-YC9-6His": {"target": "T1, NF-YC9-6His (Arabidopsis thaliana, UniProt Q8L4B2 1-231)", "T1 sequence": "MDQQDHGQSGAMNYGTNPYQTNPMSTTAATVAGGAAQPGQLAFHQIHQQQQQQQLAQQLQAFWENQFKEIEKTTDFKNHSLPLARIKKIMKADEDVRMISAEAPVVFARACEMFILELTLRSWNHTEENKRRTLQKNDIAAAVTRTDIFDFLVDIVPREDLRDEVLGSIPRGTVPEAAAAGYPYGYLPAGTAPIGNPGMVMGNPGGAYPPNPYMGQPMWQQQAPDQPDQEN", "experiment": "EMSA; 5 mM MgCl2, poly(dI-dC); NF-YC9 alone; 25 mM HEPES pH 8.0, 40 mM KCl, 5 mM MgCl2, 1 mM DTT, 1 mM EDTA, 8% glycerol, 1 ug/uL poly(dI-dC), 20 fmol probe, 30 min room temperature, 5% native PAGE", "conditions": "protein: recombinant; tags: C-terminal 6His (codons in reverse primer); label: 5' biotin; blunt"}, "ABI5-6His": {"target": "T2, ABI5-6His (Arabidopsis thaliana, UniProt Q9SJN0 1-442)", "T2 sequence": "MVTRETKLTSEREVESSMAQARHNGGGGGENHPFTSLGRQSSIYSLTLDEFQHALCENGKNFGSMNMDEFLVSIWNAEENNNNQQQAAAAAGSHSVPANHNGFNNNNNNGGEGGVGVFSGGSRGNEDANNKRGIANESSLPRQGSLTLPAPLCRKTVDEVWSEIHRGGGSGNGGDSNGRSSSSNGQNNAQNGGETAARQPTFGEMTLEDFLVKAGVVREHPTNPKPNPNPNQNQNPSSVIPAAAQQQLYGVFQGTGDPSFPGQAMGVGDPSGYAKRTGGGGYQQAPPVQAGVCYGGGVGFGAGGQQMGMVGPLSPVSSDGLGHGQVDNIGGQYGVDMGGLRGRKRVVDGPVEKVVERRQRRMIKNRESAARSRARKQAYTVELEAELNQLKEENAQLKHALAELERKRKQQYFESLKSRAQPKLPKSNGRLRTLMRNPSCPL", "experiment": "EMSA; 5 mM MgCl2, poly(dI-dC); ABI5 alone, 1 ug; 25 mM HEPES pH 8.0, 40 mM KCl, 5 mM MgCl2, 1 mM DTT, 1 mM EDTA, 8% glycerol, 1 ug/uL poly(dI-dC), 20 fmol probe, 30 min room temperature, 5% native PAGE", "conditions": "protein: recombinant; tags: C-terminal 6His (codons in reverse primer); chain copies: 2; label: 5' biotin; blunt"}},
  "data": [
    {"binder": "B1", "values": [
      {"measurement": "binding result", "setting": "NF-YC9-6His", "value": "no binding"},
      {"measurement": "binding result", "setting": "ABI5-6His", "value": "binds"}
    ]}
  ]
}
